The target of assay [1] is His-tagged human HER3 extracellular domain (Acro ER3-H5223) (human) (UniProt P21860). Description: BLI, SI-1R12 covalently coupled to AR2G sensors, monomeric HER3 ECD in solution, 1:1 fit.
The target of assay [2] is His-tagged human EGFR extracellular domain (expressed and purified in-house) (human) (UniProt P00533). Description: BLI, antibody on AHC tips, monomeric EGFR ECD in solution, 1:1 fit.
For assay [3], the target named is His-tagged human HER3 extracellular domain (Acro ER3-H5223) (human) (UniProt P21860). Description: BLI, antibody on AHC tips, monomeric HER3 ECD in solution, 1:1 fit. Background: Biolayer interferometry detects binding as a change in optical thickness at a sensor tip.
The target of assay [4] is human His-tagged HER3 extracellular domain (in-house expressed) (human) (UniProt P21860). Description: BLI sandwich assay, antibody held on immobilized biotinylated EGFR, 500 nM HER3 ECD in solution, 1:1 fit.
Assay [5] addresses biotinylated human EGFR extracellular domain (Acro EGF-H82E3) (human) (UniProt P00533). The assay is described as follows: BLI avidity format, biotinylated EGFR ECD on SA sensors, antibody in solution, 1:1 fit.

Sequence of SI-1X4.2, nimotuzumab-based EGFR x HER3 bispecific antibody with MM-111 anti-HER3 scFv (heavy): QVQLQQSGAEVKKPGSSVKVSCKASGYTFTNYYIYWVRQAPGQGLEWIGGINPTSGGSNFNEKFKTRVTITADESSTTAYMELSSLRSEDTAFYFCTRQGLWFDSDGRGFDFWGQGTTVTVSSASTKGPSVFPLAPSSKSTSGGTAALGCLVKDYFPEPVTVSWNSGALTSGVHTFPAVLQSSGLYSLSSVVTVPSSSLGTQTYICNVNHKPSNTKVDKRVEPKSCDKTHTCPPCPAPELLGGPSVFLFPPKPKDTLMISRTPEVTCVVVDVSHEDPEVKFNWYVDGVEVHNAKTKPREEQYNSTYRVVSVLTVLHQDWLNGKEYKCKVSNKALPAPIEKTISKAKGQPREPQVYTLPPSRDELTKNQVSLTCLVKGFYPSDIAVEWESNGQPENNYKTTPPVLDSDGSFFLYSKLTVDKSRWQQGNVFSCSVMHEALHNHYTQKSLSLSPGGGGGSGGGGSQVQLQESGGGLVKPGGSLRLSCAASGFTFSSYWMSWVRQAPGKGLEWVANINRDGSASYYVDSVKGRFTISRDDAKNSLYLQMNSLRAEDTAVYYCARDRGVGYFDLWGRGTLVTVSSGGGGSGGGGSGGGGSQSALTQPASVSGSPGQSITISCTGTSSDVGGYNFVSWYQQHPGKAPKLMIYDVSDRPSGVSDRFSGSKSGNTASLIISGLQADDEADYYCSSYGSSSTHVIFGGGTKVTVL
Sequence of SI-1X4.2, nimotuzumab-based EGFR x HER3 bispecific antibody with MM-111 anti-HER3 scFv (light): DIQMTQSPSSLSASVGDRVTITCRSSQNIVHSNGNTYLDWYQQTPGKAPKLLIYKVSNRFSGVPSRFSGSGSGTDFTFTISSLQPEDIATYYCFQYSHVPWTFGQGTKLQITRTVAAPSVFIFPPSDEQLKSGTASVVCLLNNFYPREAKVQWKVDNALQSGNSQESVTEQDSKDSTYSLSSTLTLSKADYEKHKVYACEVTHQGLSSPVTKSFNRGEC

What is called koff is a measure of how fast the partners let go of each other. A higher koff goes with a short-lived complex. The term kon denotes the second-order rate constant of association. Higher therefore signals faster complex formation. Take “SI-1R12 (MM-111), HER2 x HER3 bispecific human serum albumin fusion (bispecific antibody)”: in assay [1], the Kd was found to be 95.6 nM, the off-rate constant (koff) was 0.0422 s⁻¹ and the kon was determined as 441000 M⁻¹ s⁻¹.
As to “SI-1X2, panitumumab-based EGFR x HER3 bispecific antibody with MM-111 anti-HER3 scFv”, the Kd was determined as 2.77 nM in assay [2], 131 nM in assay [3] and 770 nM in assay [4].
Consider “SI-1X4.2, nimotuzumab-based EGFR x HER3 bispecific antibody with MM-111 anti-HER3 scFv”, for which the Kd in assay [2] amounted to 18.8 nM; in assay [3], 146 nM; in assay [5] it was 0.398 nM; in assay [4], 165 nM. The dissociation rate constant (koff) worked out at 0.00202 s⁻¹ in assay [2], 0.038 s⁻¹ in assay [3], 4.25e-05 s⁻¹ in assay [5] and 0.0459 s⁻¹ in assay [4]. Moreover, the association rate constant (kon) in assay [2] is 108000 M⁻¹ s⁻¹; in assay [3], 260000 M⁻¹ s⁻¹; in assay [5], 107000 M⁻¹ s⁻¹; in assay [4], 279000 M⁻¹ s⁻¹.
Regarding “SI-1X6.4, bispecific tetravalent anti-EGFR x HER3 antibody (cetuximab variable regions with mouse framework, MM-111 anti-HER3 scFv) (bispecific antibody)”, the figures for the Kd in assay [2], in assay [3] and in assay [4] were 5.38 nM, 107 nM and 617 nM, respectively.

The values are drawn from patent US20230374157A1.
